1 molecule from publication PMC5705077 (Biochemistry, 2017) can be followed below.

Assay [1] addresses T1, MBP-Brh2^106–1075 (Ustilago maydis, UniProt Q8NJ74 106-1075).
T1 sequence (looked up): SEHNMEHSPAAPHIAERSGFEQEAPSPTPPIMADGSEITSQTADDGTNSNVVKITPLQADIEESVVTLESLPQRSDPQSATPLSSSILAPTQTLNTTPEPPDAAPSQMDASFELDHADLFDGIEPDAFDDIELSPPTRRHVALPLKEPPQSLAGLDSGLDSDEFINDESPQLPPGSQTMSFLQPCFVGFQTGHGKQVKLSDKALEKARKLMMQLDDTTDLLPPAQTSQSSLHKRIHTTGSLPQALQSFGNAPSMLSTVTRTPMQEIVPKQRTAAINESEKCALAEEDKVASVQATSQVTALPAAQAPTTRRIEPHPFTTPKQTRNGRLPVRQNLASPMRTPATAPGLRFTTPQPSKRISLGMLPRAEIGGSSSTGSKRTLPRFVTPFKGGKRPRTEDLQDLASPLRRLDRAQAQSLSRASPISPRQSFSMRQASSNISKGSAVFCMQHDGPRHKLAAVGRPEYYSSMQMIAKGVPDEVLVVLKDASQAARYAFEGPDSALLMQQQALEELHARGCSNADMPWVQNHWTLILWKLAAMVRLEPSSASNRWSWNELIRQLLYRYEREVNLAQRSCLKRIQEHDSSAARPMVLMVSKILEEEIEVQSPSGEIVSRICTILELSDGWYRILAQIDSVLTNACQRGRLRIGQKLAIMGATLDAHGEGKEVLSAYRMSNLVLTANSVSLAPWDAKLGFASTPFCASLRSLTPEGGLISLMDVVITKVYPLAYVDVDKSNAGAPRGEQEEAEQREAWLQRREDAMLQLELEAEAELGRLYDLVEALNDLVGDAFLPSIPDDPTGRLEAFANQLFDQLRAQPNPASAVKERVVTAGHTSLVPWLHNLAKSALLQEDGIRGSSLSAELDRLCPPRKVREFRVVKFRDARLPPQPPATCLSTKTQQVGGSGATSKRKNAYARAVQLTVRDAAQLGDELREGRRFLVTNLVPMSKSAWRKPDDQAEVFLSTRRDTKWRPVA
Nature of the assay: pull-down.

Assay [2] concerns the target T1, MBP-Brh2^106–1075. Nature of the assay: pull-down. The source holds these as a separate data set.

B1: Rad51 (natural protein, UniProt Q99133 1-339, looked up)
chain: MSQNAQDPAQIGEDDMGEAFGPLPVSKLEEFGISSSDCKKLAESGYNTVESIAFTPKKQLLLVKGVSEAKADKILAEAARLVPMGFTTATEFHARRNELISITTGSKNLDAILGGGMETGSITELYGEFRTGKSQLCHTLAVTCQLPVDMGGGEGKCLYIDTENTFRPTRLLAVAERFGLNGEEVLDNVAYARAYNADHQLQLLMQASAMMAESRFSLLIVDSLTSLYRTDFSGRGELSARQMHLAKFLRGLMRLADEFGVAVVITNQVVAQVDGATAFTADAKKPIGGNIVAHASTTRLSLRKGRGNQRICRIADSPCLPEADAVFAIGPEGIIDPVD
Consider B1, for which the “stoichiometry N” value in assay [1] is ~2.2 Rad51 per Brh2 (mol:mol). Moreover, in assay [2], the “fold Rad51 associated relative to the Brh2/Dss1 heterodimer” value is roughly 10 fold.
